The source of these data is patent US20220204599A1 (PRESTIGE BIOPHARMA, published 2022).

The target of test [1] is T1, collagen triple helix repeat containing-1 (CTHRC1) protein (Homo sapiens (Human), UniProt Q96CG8 31-243).
T1 construct: The coated protein may in fact have been CTHRC1-His or CTHRC1-Fc
Kind of test: indirect ELISA, CTHRC1 coated at 5 µg/mL, anti-human Fc-HRP. The protocol:
The affinity of cCMAb45 and cCMAb96, which are anti-CTHRC1 chimeric antibodies, prepared in Example 1-3 to the CTHRC1 protein was verified. Indirect ELISA was performed to test the affinity of the antigens and antibodies.
100 μL of CTHRC1 was dispensed at a concentration of 5 μg/mL onto an immuno-plate and coated at 4° C. overnight. The next day, the coated CTHRC1 solution was discarded and blocked for 2 hours. Thereafter, the cCMAb45 and cCMAb96 antibodies were treated at different concentrations and reacted at room temperature for 2 hours, and the antibodies were discarded to remove the unbound antibodies, and then the plate was washed. The OD value was measured using the anti-human Fc-HRP as a second antibody that recognizes human constant regions. In particular, the higher OD value indicates higher affinity between CTHRC1 and the antibodies.
For orientation: An ELISA detects its analyte on a solid surface through an enzyme-linked reagent.

Another test addresses T2, CTHRC1-His (Homo sapiens (Human), UniProt Q96CG8 30-243).
T2 construct: also called antigen CTHRC1-His
Kind of test: indirect ELISA, CTHRC1-His coated, re-measurement.

T2 sequence (Q96CG8 other isoform, or with tags, fused parts or gaps limits assumed): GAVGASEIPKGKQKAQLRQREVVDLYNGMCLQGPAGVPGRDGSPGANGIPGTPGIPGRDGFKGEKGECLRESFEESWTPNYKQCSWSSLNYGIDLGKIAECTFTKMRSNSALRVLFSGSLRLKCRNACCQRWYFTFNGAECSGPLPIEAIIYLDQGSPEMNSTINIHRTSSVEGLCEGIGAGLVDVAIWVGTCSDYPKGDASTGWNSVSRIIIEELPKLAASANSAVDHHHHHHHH
T1 sequence (Q96CG8 31-243 limits assumed): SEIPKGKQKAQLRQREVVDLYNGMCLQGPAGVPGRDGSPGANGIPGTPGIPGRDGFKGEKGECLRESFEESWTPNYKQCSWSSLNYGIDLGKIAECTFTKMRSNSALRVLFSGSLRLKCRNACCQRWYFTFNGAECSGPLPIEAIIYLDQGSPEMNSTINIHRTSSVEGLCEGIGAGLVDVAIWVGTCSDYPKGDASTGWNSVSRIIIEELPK

B1: cCMAb45 anti-CTHRC1 chimeric antibody (antibody, V domains shown)
VH: EVQLQQSGPELVKPGASVKISCKASGYSFTDYIMLWVKQSHGKSLEWIGNINPYYGSTSYNLKFKGKATLTVDKSSSTAYMQLNSLTSEDSAVYYCARSGYGYDESAMDYWGQGTSVTVSS
VL: DVLMTQTPLSLPVNIGDQASISCKSTKSLLNSDGFTYLDWYLQKPGQSPQLLIYLVSNRFSGVPDRFSGSGSGTDFTLKISRVEAEDLGVYYCFQSNYLPLTFGSGTKLEIK
notes: Detected with anti-human kappa light chain-HRP, so the light chain is kappa; also called chimeric 4H5
In turn, B1 gave a Kd in test [1] of 0.52 nM.

B2: hCMAb45 humanized anti-CTHRC1 antibody (antibody, V domains shown)
VH: QVQLVESGAEVKKPGASVKVSCKASGYSFTDYIILWVRQAPGQGLEWMGAINPYYGSTVYGQKFQGRLTITADGSMSTAYMELSSLRSEDTAVYYCARSGYGYDESAMDYWGQGTLVTVSS
VL: DIVMTQTPLSLPVTPGEPASISCRSSKSLLNSDGFTYLDWYLQKPGQSPQLLIYLVSNRFSGVPDRFSGSGSGTDFTLKISRVEAEDVGVYYCFQSNYLPLTFGQGTKLEIK
notes: Humanized IgG made by CDR grafting and expressed in HEK293F; also called SA2765; humanized 4H5
Regarding B2, in the test with CTHRC1-His, the binding result is given as “binds”.

B3: cCMAb96 anti-CTHRC1 chimeric antibody (antibody, V domains shown)
VH: QVQLQQPGSELVRPGASVKLSCKASGYTFTSYWMHWVKQRPGQGLEWIGNIYPSSGTTNYDEKFKNKATLTVDTSSTTAYMHLSSLTSEDSAVYYCTTESYWGQGTTLTVSS
VL: DIVMTQSPSSLSASLGDTITITCHASQNINVWLSWYQQKPGNIPKLLIYKASNLHTGVPSRFSGSGSGTGFTLTISSLQPEDIATYYCQQGQSYPLTFGGGTKLEIK
notes: Detected with anti-human kappa light chain-HRP, so the light chain is kappa; also called chimeric 9E6
For B3, binding in test [1] was characterised by a dissociation constant (Kd) of 0.43 nM.

B4: hCMAb96 humanized anti-CTHRC1 antibody (antibody, V domains shown)
VH: QVQLVQSGAEVKKPGASVKVSCKASGYTFTSYWMHWVRQAPGQGLEWIGYIYPSSGTTNYNQKFQGRVTITADESTSTAYMELSPLRSEDTAVYYCTTESYWGQGTTVTVSS
VL: DIQMTQSPSSLSASLGDTITITCHASQNINVWLAWYQQKPGKAPKLLIYKASNLHSGVPSRFSGSGSGTDFTLTISSLQPEDIATYYCQQGQSYPLTFGQGTKVEIK
notes: Humanized IgG made by CDR grafting and expressed in HEK293F; also called SA2770; humanized 9E6
On to B4, for which the binding result with CTHRC1-His was “binds”.

As a reminder, the Kd is a measure of binding affinity in units of concentration. Read a low Kd as tighter binding.
